T1: monkey B7H3-His (monkey)
T1 chain: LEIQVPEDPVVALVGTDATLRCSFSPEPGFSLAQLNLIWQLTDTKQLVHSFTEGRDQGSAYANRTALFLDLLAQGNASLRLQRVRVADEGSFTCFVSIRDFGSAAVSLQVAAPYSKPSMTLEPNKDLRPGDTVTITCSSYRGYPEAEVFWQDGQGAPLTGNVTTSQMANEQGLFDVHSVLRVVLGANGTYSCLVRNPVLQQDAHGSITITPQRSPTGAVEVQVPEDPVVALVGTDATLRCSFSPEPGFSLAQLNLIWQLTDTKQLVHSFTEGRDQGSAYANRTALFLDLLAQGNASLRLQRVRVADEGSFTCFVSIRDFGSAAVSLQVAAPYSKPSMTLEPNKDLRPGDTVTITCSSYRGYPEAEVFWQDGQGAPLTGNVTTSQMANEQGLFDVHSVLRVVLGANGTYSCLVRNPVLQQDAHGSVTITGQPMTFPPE

T2: recombinant human B7H3-Fc protein (human, UniProt Q5ZPR3 29-466, limits assumed)
T2 construct: 154 kDa non-reduced, 77 kDa reduced; also called hB7H3-Fc; not shown: Fc part
T2 sequence (looked up): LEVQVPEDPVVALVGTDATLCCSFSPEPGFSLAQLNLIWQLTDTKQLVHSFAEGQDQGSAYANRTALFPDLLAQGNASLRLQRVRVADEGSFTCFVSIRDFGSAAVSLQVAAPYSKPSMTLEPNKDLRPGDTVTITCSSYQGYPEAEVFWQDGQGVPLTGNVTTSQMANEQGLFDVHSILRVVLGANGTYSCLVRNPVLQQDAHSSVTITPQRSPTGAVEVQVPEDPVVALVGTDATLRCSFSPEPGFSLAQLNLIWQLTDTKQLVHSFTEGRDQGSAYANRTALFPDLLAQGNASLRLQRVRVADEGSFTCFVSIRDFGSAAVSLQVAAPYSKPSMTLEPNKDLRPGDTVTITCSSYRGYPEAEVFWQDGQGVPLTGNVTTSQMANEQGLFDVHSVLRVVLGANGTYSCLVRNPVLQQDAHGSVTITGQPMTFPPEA

T3: rat B7H3-His (rat, UniProt Q7TPB4 29-244, limits assumed)
T3 construct: not shown: His tag
T3 sequence (looked up): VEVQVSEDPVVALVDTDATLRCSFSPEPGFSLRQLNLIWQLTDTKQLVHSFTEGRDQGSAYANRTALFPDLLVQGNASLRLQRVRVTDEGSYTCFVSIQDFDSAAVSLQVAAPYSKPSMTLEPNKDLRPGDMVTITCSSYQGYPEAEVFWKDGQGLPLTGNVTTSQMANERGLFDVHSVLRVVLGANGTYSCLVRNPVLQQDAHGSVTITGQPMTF

T4: human B7H3 (human, UniProt Q5ZPR3 29-466, limits assumed)
T4 construct: also called human B7H3 protein
T4 sequence (looked up): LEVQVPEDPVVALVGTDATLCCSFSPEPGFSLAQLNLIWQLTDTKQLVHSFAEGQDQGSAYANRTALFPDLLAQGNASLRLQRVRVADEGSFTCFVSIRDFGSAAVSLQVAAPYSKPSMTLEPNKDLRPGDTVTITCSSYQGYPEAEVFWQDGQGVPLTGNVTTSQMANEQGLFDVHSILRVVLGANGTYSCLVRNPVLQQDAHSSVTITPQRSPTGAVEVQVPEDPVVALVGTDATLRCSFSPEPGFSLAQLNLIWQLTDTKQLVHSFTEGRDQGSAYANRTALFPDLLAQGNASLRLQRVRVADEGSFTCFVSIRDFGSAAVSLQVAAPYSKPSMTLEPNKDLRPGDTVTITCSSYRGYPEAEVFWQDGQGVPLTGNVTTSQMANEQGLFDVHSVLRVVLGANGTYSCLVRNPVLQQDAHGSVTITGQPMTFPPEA

T5: hB7H3-His (human, UniProt Q5ZPR3 29-461, limits assumed)
T5 construct: not shown: His tag
T5 sequence (looked up): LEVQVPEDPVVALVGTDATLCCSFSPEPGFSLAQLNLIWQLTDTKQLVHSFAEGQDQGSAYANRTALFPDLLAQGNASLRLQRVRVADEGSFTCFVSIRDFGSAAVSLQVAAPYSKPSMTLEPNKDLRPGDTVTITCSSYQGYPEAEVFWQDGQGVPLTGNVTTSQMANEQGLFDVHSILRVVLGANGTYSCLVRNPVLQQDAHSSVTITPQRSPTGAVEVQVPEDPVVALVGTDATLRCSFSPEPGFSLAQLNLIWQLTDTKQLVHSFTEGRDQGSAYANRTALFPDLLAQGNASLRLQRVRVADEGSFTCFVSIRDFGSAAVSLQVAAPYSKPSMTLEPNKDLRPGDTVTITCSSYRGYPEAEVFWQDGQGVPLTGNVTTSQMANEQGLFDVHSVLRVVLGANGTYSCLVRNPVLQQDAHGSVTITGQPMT


Assays:
monkey B7H3-His [1] = molecular target: T1, monkey B7H3-His; assay: ELISA; row Monkey; well 2 of 3
Procedure, shortened: (§1)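 Phage panning on recombinant B7H3-Fc yielded camel VHH nanobodies, which were then purified. Their binding was tested by ELISA against immobilised recombinant proteins, including B7H3 fusion proteins and proteins other than B7H3, and recorded as the ELISA signal.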

PD-L1 [2] = assay: ELISA, purified VHH, cross-reaction
Chain of PD-L1 (Q9NZQ7 whole entry): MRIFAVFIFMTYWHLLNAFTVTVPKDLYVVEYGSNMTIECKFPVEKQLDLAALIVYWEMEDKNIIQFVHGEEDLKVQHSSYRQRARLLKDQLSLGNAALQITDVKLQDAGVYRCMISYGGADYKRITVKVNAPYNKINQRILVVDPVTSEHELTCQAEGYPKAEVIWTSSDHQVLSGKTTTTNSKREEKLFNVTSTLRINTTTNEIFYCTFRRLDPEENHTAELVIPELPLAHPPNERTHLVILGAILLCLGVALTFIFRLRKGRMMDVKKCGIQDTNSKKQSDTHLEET

[3] = molecular target: T2, recombinant human B7H3-Fc protein; assay: ELISA; row B7H3-Fc; well 2 of 3
Procedure, shortened: as §1

monkey B7H3-His [4] = molecular target: T1, monkey B7H3-His; assay: ELISA; row Monkey; well 3 of 3
Procedure, shortened: as §1

HN3-Fc [5] = assay: ELISA; row HN3-Fc; well 1 of 3
Procedure, shortened: as §1

Irrelevant antigen [6] = molecular target: T6, Irrelevant antigen; assay: ELISA; row Irrelevant antigen; well 3 of 3
T6 construct: negative control
Procedure, shortened: as §1

rat B7H3-His = molecular target: T3, rat B7H3-His; assay: ELISA, purified VHH
Procedure, shortened: as §1

monkey B7H3-His [7] = molecular target: T1, monkey B7H3-His; assay: ELISA, purified VHH
Procedure, shortened: as §1

Non-relevant antigen = assay: ELISA, purified VHH
Procedure, shortened: as §1

[8] = molecular target: T2, recombinant human B7H3-Fc protein; assay: ELISA, purified VHH
Procedure, shortened: as §1

human B7H3 = molecular target: T4, human B7H3; assay: ELISA; row Human; well 3 of 3
Procedure, shortened: as §1

B7H3 R&D [9] = assay: ELISA; row B7H3 R&D; well 3 of 3
Procedure, shortened: as §1

HN3-Fc [10] = assay: ELISA; row HN3-Fc; well 3 of 3
Procedure, shortened: as §1

PD-L1 [11] = assay: ELISA; row PDL1-Fc; well 3 of 3
Procedure, shortened: as §1

HN3-Fc [12] = assay: ELISA; row HN3-Fc; well 2 of 3
Procedure, shortened: as §1

B7H3 R&D [13] = assay: ELISA; row B7H3 R&D; well 2 of 3
Procedure, shortened: as §1

Irrelevant antigen [14] = molecular target: T6, Irrelevant antigen; assay: ELISA; row Irrelevant antigen; well 2 of 3
Procedure, shortened: as §1

hB7H3-His = molecular target: T5, hB7H3-His; assay: ELISA; row B7H3-his; well 3 of 3
Procedure, shortened: as §1

Irrelevant antigen [15] = molecular target: T6, Irrelevant antigen; assay: ELISA; row Irrelevant antigen; well 1 of 3
Procedure, shortened: as §1

PD-L1 [16] = assay: ELISA; row PDL1-Fc; well 1 of 3
Procedure, shortened: as §1

| ELISA reading (name not given) (monkey B7H3-His [1]) | ELISA signal (PD-L1 [2]) | ELISA reading (name not given) [3] | ELISA reading (name not given) (monkey B7H3-His [4]) | ELISA reading (name not given) (HN3-Fc [5]) | ELISA reading (name not given) (Irrelevant antigen [6]) | ELISA signal (rat B7H3-His) | ELISA signal (monkey B7H3-His [7]) | ELISA signal (Non-relevant antigen) | ELISA signal [8] | ELISA reading (name not given) (human B7H3) | ELISA reading (name not given) (B7H3 R&D [9]) | ELISA reading (name not given) (HN3-Fc [10]) | ELISA reading (name not given) (PD-L1 [11]) | ELISA reading (name not given) (HN3-Fc [12]) | ELISA reading (name not given) (B7H3 R&D [13]) | ELISA reading (name not given) (Irrelevant antigen [14]) | ELISA reading (name not given) (hB7H3-His) | ELISA reading (name not given) (Irrelevant antigen [15]) | ELISA reading (name not given) (PD-L1 [16]) | Binder |
| --- | --- | --- | --- | --- | --- | --- | --- | --- | --- | --- | --- | --- | --- | --- | --- | --- | --- | --- | --- | --- |
| 0.198 | 0.0715 | 2.01 | 0.195 | 0.05 | 0.114 | 0.0696 | 0.117 | 0.0562 | 0.641 | 0.164 | 0.0646 | 0.0535 | 0.0999 | 0.0514 | 0.0632 | 0.098 | 0.0636 | 0.104 | 0.0653 | RWG8 (VHH, Camel VHH; tag not described; also called camel antibody RWG8) VHH: DVQLVESGGGLVQPGGSLRLSCAASGFTFSRYWMGWFRQAPGKGVEWVSTINSGGGSTYYADSVKGRFTISRDNAKNTLYLQLNNLKTEDTAMYYCAKEQWRTGSRGQGTQVTVSS |
| 0.201 | 0.0454 | 0.945 | 0.178 | 0.0533 | 0.0853 | 0.0574 | 0.164 | 0.0495 | 0.568 | 0.199 | 0.0955 | 0.048 | 0.0624 | 0.0616 | 0.0559 | 0.0864 | 0.0946 | 0.08 | 0.0639 | RWB12 (VHH, Camel VHH; tag not described; also called camel antibody RWB12) VHH: QVQLVESGGGSVQVGGSLRLSCAASGFTYNSYSVGWFRQAPGKEREGVAAINSGGSSTYYAASVKGRFTISRDNAKNTVYLQMNSLKPEDTAMYYCAARSPSPLTFQTRTLREDSYNYWGQGTQVTVSS |
| 1 | 0.043 | 1.99 | 1.04 | 0.0801 | 0.102 |  | 0.288 | 0.0719 | 2.02 | 0.938 | 0.156 | 0.0467 | 0.0613 | 0.046 | 0.151 | 0.0888 | 0.0811 | 0.0845 | 0.0625 | RWC4 (VHH, Camel VHH; tag not described; also called camel antibody RWC4) VHH: EVQLVESGGGSVQAGGSLRLSCVASEDSTSAMCMGWFRQAPGKEREGVACINPTGEVTWYGDSVKGRFTISRDTVKKIVYLQMNSLKPEDTAMYYCAARVTYGGDWSTDTDYEYWGQGTQVTVSS |
|  | 0.0614 |  |  |  |  | 1.5 | 1.81 | 0.0541 | 2.54 |  |  |  |  |  |  |  |  |  |  | RWG4 (VHH, Camel VHH; tag not described; also called camel antibody RWG4) VHH: QVQLVQSGGGLVQPGGSLRLSCAASGFTFSVYWFYWVRQAPRQGLEWVSTIASNGSTYYSDSVKGRFTISRDNAKNTVYLQMNSLKPEDTAVYYCVSDPDYYSDYERAYKFWAQGTQVTVSS |

Reference: US20220380471A1 (US Dept. of Health and Human Services, published 2022)
